From patent US20250295803A1, “5T4 ANTIBODY-DRUG CONJUGATES AND USES THEREOF” (EXELIXIS, INC., priority 2022, published 2025) come the findings set out here.

Data set [1] can be described thus: Protein thermal shift (melting temperature). The data set is classed as physicochemical. On the procedure: Samples for protein thermal shift experiments (melting temperature) were prepared using the APPLIED BIOSYSTEMS™ PROTEIN THERMAL SHIFT™ Dye Kit (ThermoFisher Scientific Cat. No. 4461146). Data were collected using a QUANTSTUDIO™ 3 instrument (ThermoFisher Scientific Cat. No. A28567) with PROTEIN THERMAL SHIFT™ Software v1.4 (ThermoFisher Scientific Cat. No. 466038). Briefly, PROTEIN THERMAL SHIFT™ dye (1000×) was diluted in water to 8× in deionized water. Samples were prepared on ice by combining 5 μL of PROTEIN THERMAL SHIFT™ Buffer, 12.5 μL of protein solution, and 2.5 μL of the diluted PROTEIN THERMAL SHIFT™ Dye (8×) for a total reaction solution volume of 20 μL. The reaction solution was mixed 10 times with a pipette. Tubes were then spun down at 1000 rpm for 1 minute and then incubated on ice until analysis. Samples were loaded onto the instrument plate, which were then loaded into a QUANTSTUDIO™ 3 Real-Time PCR System instrument. Data was collected using the standard Melt Curve experiment with the following conditions: Step 1 temperature: 25° C. for 2 minutes; Step 2 temperature: 99° C. for 2 minutes with continuous fast ramp mode (Step 1: 1.6° C./sec; Step 2: 0.05° C./sec). Raw melting temperature data were deconvoluted within the QUANTSTUDIO™ 3 analysis software.

Data set [2] addresses T1, HEK293 and CHO cells transfected to express mouse 5T4 (Mus musculus, UniProt Q9Z0L0).
T1 construct: expressed in transfected cells; host or cells: HEK293 and CHO
T1 sequence (Q9Z0L0 32-426): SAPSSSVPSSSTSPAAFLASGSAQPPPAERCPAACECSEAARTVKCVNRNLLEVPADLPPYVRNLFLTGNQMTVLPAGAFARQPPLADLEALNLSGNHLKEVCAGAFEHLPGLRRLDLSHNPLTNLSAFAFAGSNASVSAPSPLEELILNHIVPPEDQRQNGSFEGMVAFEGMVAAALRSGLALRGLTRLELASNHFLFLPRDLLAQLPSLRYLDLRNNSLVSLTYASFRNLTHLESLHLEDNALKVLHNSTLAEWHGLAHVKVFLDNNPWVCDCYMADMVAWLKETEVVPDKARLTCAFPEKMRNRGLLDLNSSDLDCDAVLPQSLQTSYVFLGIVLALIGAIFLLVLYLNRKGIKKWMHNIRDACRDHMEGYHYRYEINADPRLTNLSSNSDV
Nature of the data set: Cell binding to transfected HEK293 and CHO cells, mouse 5T4. The data set is classed as cell-based. On the procedure:
Unconjugated antibodies were tested for their ability to bind to HEK293 and CHO cells transfected to express human, cyno, rat, or mouse 5T4.

For data set [3], the target named is T2, unconjugated human TPBG/5T4 protein with a c-terminal polyhistidine and Avi tag (AcroBiosystems Cat. No. … (human, UniProt Q13641 32-355)).
T2 construct: Bought protein; also called Acro TPGH52E5; Acro Catalog No. TPGH52E; not shown: C-terminal polyhistidine and Avi tag
T2 sequence: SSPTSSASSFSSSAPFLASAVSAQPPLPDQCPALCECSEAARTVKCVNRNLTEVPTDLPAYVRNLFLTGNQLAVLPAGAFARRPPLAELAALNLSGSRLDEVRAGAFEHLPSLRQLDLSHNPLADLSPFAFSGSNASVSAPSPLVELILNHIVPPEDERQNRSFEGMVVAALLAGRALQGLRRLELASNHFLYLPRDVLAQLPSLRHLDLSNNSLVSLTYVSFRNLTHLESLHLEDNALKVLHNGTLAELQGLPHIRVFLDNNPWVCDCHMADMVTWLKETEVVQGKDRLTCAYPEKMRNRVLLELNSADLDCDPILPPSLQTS
Nature of the data set: ELISA on coated human 5T4 His-Avi (Acro TPG-H52E5); antibody condition: pH 5.5 Day 14. On the procedure: (§1) A. Normal Binding Unconjugated antibodies were tested for their ability to bind to human 5T4 (hu5T4) using ELISA. On Day 1, unconjugated human TPBG/5T4 protein with a c-terminal polyhistidine and Avi (AVITAG™) tag (AcroBiosystems (Newark, DE, USA), Cat. No. TPG-H52E5) was diluted 2 μg/mL in PBS, mixed thoroughly, plated 100 μL per well in a 96-well plate (Nunc MAXISORP®) and incubated overnight at 4° C.
2. Low pH Stress Test. Several unconjugated antibodies were tested for their ability to bind to 5T4 using ELISA under acidic (low pH) conditions. […]
For orientation: An ELISA detects its analyte on a solid surface through an enzyme-linked reagent.

Data set [4] deals with T2, unconjugated human TPBG/5T4 protein …. Kind of data set: ELISA on coated human 5T4 His-Avi (Acro TPG-H52E5); antibody condition: PBS + H2O2 time 24 hr. On the procedure: as §1
3. Oxidative Stress. Several unconjugated antibodies were tested for their ability to bind to 5T4 using ELISA in an oxidative environment. […]

For data set [5] the target is unchanged. Kind of data set: Octet, antibody on AHC sensors, human 5T4 in solution (monovalent); Acro TPGH52E5 Lot B465-87AF1-K2. The method, then: Monovalent binding assays were employed to determine the relative affinity of each 5T4 binder obtained by the phage display in Example 1 to human 5T4. Human 5T4 was purchased from Acro Biosystems (Acro Catalog No. TPGH52E) and also produced separately. The monovalent interaction of binders to human 5T4 was monitored using an Octet (Pall ForteBio) instrument. For these assays, 36 nM antibody was immobilized on anti-human Fc (AHC) sensors in 1× kinetic buffer (ForteBio). The sensors were then dipped in wells containing a 3× serial dilution of human 5T4 ranging from 1 μM to 1.37 nM. The association was allowed to reach equilibrium. Sensors were then moved to wells containing only 1× kinetic buffer and allowed to dissociate to equilibrium. Association and dissociation rates were measured and from these, monovalent KDS were calculated using the onboard analysis software (ForteBio).
In general terms: In BLI a coated tip is dipped into the sample, and binding shifts an interference pattern.

B1: mAbA4: 5T4 antibody comprising VH of SEQ ID NO:25 and VL of SEQ ID NO:26 (antibody, V domains shown)
VH: EVQLVESGGGLVQPGGSLRLSCAASGFTFSRYYIHWVRQAPGKGLEWVAFISPGGSYTYYADSVKGRFTISADTSKNTAYLQMNSLRAEDTAVYYCAREYYSMGVLDYWGQGTLVTVSS
VL: DIQMTQSPSSLSASVGDRVTITCRASQSVSSAVAWYQQKPGKAPKLLIYSASSLYSGVPSRFSGSRSGTDFTLTISSLQPEDFATYYCQQAYESPYTFGQGTKVEIK
modifications: Antibody mAbA4 VH Sequence; Antibody mAbA4 VL Sequence
Take B1: in data set [1], the “CH2 Tm” value is 69.18 and the “Fab Tm” value came to 89.94. The “reactivity to cells transfected to express mouse 5T4” value (shortened to “reactivity to cells transfected”) in data set [2] is “not to cells transfected to express rat or mouse 5T4”.

B2: mAbA15: 5T4 antibody comprising VH of SEQ ID NO:44 and VL of SEQ ID NO:45 (antibody, V domains shown)
VH: EVQLVESGGGLVQPGGSLRLSCAASGFTFSSYYIHWVRQAPGKGLEWVAYITSTGSYTEYADSVKGRFTISADTSKNTAYLQMNSLRAEDTAVYYCARYDRSTRYSGLDYWGQGTLVTVSS
VL: DIQMTQSPSSLSASVGDRVTITCRASQSVSSAVAWYQQKPGKAPKLLIYSASSLYSGVPSRFSGSRSGTDFTLTISSLQPEDFATYYCQQAYATPVTFGQGTKVEIK
modifications: Antibody mAbA15 VH Sequence; Antibody mAbA15 VL Sequence
As for B2, in data set [1], the “CH2 Tm” value was 70.07 and the “Fab Tm” value is recorded as 86.38. For the same molecule, the “reactivity to cells transfected” value in data set [2] is “not to cells transfected to express rat or mouse 5T4”.

B3: mAbA17 (antibody, V domains shown)
VH: EVQLVESGGGLVQPGGSLRLSCAASGFTFSRYWIHWVRQAPGKGLEWVAAIFPYSGSTLYADSVKGRFTISADTSKNTAYLQMNSLRAEDTAVYYCARSPSRSILPSGLDYWGQGTLVTVSS
VL: DIQMTQSPSSLSASVGDRVTITCRASQSVSSAVAWYQQKPGKAPKLLIYSASSLYSGVPSRFSGSRSGTDFTLTISSLQPEDFATYYCQQGDGSPYTFGQGTKVEIKR
notes: also called Antibody mAbA17
In the case of B3, the 50% effective concentration (EC50) was 0.153 nM in data set [3] and 0.183 nM in data set [4]. This molecule also came in with a Kd in data set [5] of 2.81 nM.

B4: mAbA15 (antibody, V domains shown)
VH: EVQLVESGGGLVQPGGSLRLSCAASGFTFSSYYIHWVRQAPGKGLEWVAYITSTGSYTEYADSVKGRFTISADTSKNTAYLQMNSLRAEDTAVYYCARYDRSTRYSGLDYWGQGTLVTVSS
VL: DIQMTQSPSSLSASVGDRVTITCRASQSVSSAVAWYQQKPGKAPKLLIYSASSLYSGVPSRFSGSRSGTDFTLTISSLQPEDFATYYCQQAYATPVTFGQGTKVEIKR
notes: also called Antibody mAbA15
In the case of B4, the results for the EC50 in data set [3] and in data set [4] were 0.138 nM and 0.19 nM, respectively. Further, the Kd in data set [5] turned out to be 3.62 nM.

B5: mAbA17: 5T4 antibody comprising VH of SEQ ID NO:62 and VL of SEQ ID NO:63 (antibody, V domains shown)
VH: EVQLVESGGGLVQPGGSLRLSCAASGFTFSRYWIHWVRQAPGKGLEWVAAIFPYSGSTLYADSVKGRFTISADTSKNTAYLQMNSLRAEDTAVYYCARSPSRSILPSGLDYWGQGTLVTVSS
VL: DIQMTQSPSSLSASVGDRVTITCRASQSVSSAVAWYQQKPGKAPKLLIYSASSLYSGVPSRFSGSRSGTDFTLTISSLQPEDFATYYCQQGDGSPYTFGQGTKVEIK
modifications: Antibody mAbA17 VH Sequence; Antibody mAbA17 VL Sequence
For the molecule B5, in data set [1], the “CH2 Tm” value was 70.06 and the “Fab Tm” value came to 81.92. Besides, the “reactivity to cells transfected” value in data set [2] is “not to cells transfected to express rat or mouse 5T4”.

B6: mAbA4 (antibody, V domains shown)
VH: EVQLVESGGGLVQPGGSLRLSCAASGFTFSRYYIHWVRQAPGKGLEWVAFISPGGSYTYYADSVKGRFTISADTSKNTAYLQMNSLRAEDTAVYYCAREYYSMGVLDYWGQGTLVTVSS
VL: DIQMTQSPSSLSASVGDRVTITCRASQSVSSAVAWYQQKPGKAPKLLIYSASSLYSGVPSRFSGSRSGTDFTLTISSLQPEDFATYYCQQAYESPYTFGQGTKVEIKR
notes: also called Antibody mAbA4
As for B6, the EC50 in data set [3] was determined as 0.122 nM; in data set [4] it was 0.393 nM. This molecule also displayed a Kd in data set [5] of 0.01 nM.

For orientation: EC50 means the concentration that produces a half-maximal response. In general, Kd refers to the concentration at which binding is half-saturated. A high value points to a looser complex.
